The domain aggregation screens of Martell et al. (2025)

Test: soluble fraction after stress (log2 fold change); higher = more stays soluble; pooled small domains, quantitative proteomics
Conditions: stress: 50 degC
Procedure, shortened: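 Each library was heated to 50°C as a stress step. The libraries, made up of small protein domains, were pooled and analysed at high throughput by quantitative proteomics. The reported value is the base-two logarithm of the fold change in each protein's soluble amount after stress, taken as a measure of aggregation propensity. The higher the value, the more protein stays in solution.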

Row | Sequence | soluble fraction (log2)
1 | HMDNMTEMQKAVTALIEKSGGSIDNLSVIYDHLKKKYPSFDLKDYGYSRFSSFLRSMENIMVRGNAVTLRS | 0.0337
2 | HMDNPPDRAEIEQMLKDAGLTPEADAMAALSDLARTLDPGDFRQTLEKITLYKLGDSTPIGLDDIAAGAP | -0.0256
3 | HMDNQSIVRINDGDGAWRQRLGEHFGHLPRDRKRGEIVLQVDAADWRWLQTQGYAPRFDAALSAQLQTTL | -0.404
4 | HMDNVLGKSGKVIFVNEEINSYGRAFIPGHGEWNIRTKSDQNIHINDGIKVIERDGITLVVEL | -1.14
5 | HMDNVQLRNFAIKATEASIIYLDQEQRNFFWYNNNKKLMTVPFDENPYSAFAAYLKTDEGSEVYKAIEKKF | -1.68
6 | HMDNWAALLSEREVQVSRLVANGASNKEIADHLAITERTVKAHLTAVFEKLGVRDRLQLSLRVNGL | -2.01
7 | HMDPALSPAEQKIWDLLAAGETHIDDLVRASGLPVATVNSALVMMEMKEVISQVAAKTYRRNRRN | -0.0324
8 | HMDPEARRRAILNAAIDVIVEKGAAALTHRAVAARAGVSLGSTTKYFSSIEDLRENAMDALVREMD | -0.273
9 | HMDPEEQIQSREIWEAVERALDGMQEKGRRVVIALLEGQTQLEVSRAAGISQPLISYYLKSFRTKVRTELG | -0.48
10 | HMDPEIADAVNTIKKYLESHYSEVITRKKIEELVHLNQDHINREFKKQTGYTLMEYVQHYRILMAKKMLRV | -0.243
11 | HMDPEQLKIAINTKMPFGKYSGRPLLLLPEPYLVWFKQQGFPDSKLGSQLAMMYEVKLNGLEQMLMPLL | -0.673
12 | HMDPERLDQLQNPDPAVRREAIIALGRSKDLAALPELAKVYKNDPVPELRELARQAGRYIQQENRP | 0.126
13 | HMDPFVILGISKDSSQSEILEAYKTKRAYYQEHVFDEGDQGAQAARMLGQLDDAYQQAMELSHE | -0.062
14 | HMDPKISWESDEKLSANIGHYENSIKPLMGNKYLIELSQLKDKIESHPWVARATIKRIFWNKIHIQLESHD | 0.00717
15 | HMDPKWSHVRRLLDDENPIVRKALTEELIRSPEEGLAFLEQVIREPDHLLAKHAHNLLSELGWV | 0.0264
16 | HMDPLGHVIKKKRLQLGMTLRDLAAKAGVHHATIDRIETDQFKVVDPSTLVKIAEALHLDQLYLLSLN | -0.0139
17 | HMDPLPDEVQEVIDMVDGFKAMDELSEADKADVKAAYDAYNALSAEHKAMVPEHIVTFLNRAYDKLFD | 0.0291
18 | HMDPPVDLTPREQQVLSRIALGMSDKAIAAELGVSHQTVRNHVARIYAKIKVHSRSQAIVWAREKGIP | -0.185
19 | HMDPSKMKIDELEIATRTATALADGGIKSVAGLIRKSASALKELDGVGDKAIAEITEALEKLGLELKG | 0.0501
20 | HMDPSWVPVFNNLRDAILSHQLLPGTRLAEDELSNIYGLGRTVIRSALGALTHEGLLTHIPNRGVHVAKP | -0.819
21 | HMDPTIAAIRKKLKNWTIVEVHMTREELEQAVIDGKVDVFLSSAGFYRRLVRFGARDLATAMSPAYPD | -0.542
22 | HMDPTYYFNLYPNPSKDEVSLFTNFTGKINIEILDLAGKSILSDNPISTISLVSLKEGLYLVKVKS | -0.208
23 | HMDPYLSGLLQKLAETDKKISFTRLRSEDLDGESREAIYEFIEKYSGRFGVRWLLNEFGLSPSVYYNYLHS | -0.741
24 | HMDQDLGFLINKYFELGKDYNTLVEIYEKIKEYIASIDKKMLEYTKNFTIEQLKKWLDDGTINNIILTLG | -0.142
25 | HMDQEDAYMQVRQVFDTLLVSELSKRIFAWRFFEGKSFAEWPGAESQKFLYDTFNRILLIISAKIRRKNA | -0.0448
26 | HMDQHERQQLLIHIAGGEREALAELYQRTRSAVYGLALSYLKNAHDAQDLTRDVYVQVWDRA | 0.344
27 | HMDQQTKFKTALAALAASAETKDRKLTKADVKEFLEDMDLGEEQMKLVYAYLASKHIHVEGAE | 0.178
28 | HMDQSIDADIINLNFSKNIIKIEENVYYKNNNAKVNADKIEINIETKKLKISMNEQEDEVEIFAK | 0.283
29 | HMDQTIFFGQQKAINNLSTDAGLSATELDEYLKKRYKRPLYQLTQAEGAEIIKGFQDGALSRSSILDYTK | -0.00165
30 | HMDRKFFFNEQYEDYINSDLKVKFMNDSGSKKSFQGELTKVTPSDLFLESEKESVKVPFSSIIQANLI | -0.147
